Experimental findings from patent publication US7119183 are described below.

The assay deals with human CDw32 antigen (IgG Fc receptor) (human) (UniProt P12318). Put plainly: indirect immunofluorescence on CDw32-transfected COS cells.
Chain of UniProt P12318 (P12318 34-317 H167R limits assumed, form in doubt): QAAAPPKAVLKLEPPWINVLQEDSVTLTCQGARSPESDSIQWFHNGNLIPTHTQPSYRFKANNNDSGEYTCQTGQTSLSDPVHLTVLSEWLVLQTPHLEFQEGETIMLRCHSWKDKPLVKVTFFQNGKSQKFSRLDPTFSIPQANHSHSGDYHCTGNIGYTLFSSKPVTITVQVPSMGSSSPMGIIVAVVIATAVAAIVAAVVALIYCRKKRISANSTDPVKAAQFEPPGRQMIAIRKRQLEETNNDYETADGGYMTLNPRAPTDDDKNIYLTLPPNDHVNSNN

human IgG (antibody) yielded a Kd of 0.1 µM. Substance mouse IgG (antibody) displayed a dissociation constant Kd of 0.1 µM.
